We go through 1 molecule from patent US20070134256A1 (US Dept. of Health and Human Services, published 2007).

Experiment [1] concerns the target dengue type 1 virus (DENV-1), Western Pacific strain, virions (dengue type 1 virus, UniProt P17763 281-775; P17763 115-280).
Experiment [2] has as its target dengue type 2 virus (DENV-2), prototype New Guinea C strain, virions (dengue type 2 virus, UniProt P14340 281-775; P14340 115-280).
For experiment [3], the target named is T1, dengue type 3 virus (DENV-3), strain H87, virions (dengue type 3 virus, UniProt P27915 281-773; P27915 115-280).
In experiment [4] the target is T2, dengue type 4 virus (DENV-4), strain 814669, virions (dengue type 4 virus, UniProt P09866 280-774; P09866 114-279).
In experiment [5] the target is T1, dengue type 3 virus (DENV-3), strain …. Nature of the experiment: cell-based or functional assay.
Experiment [6] addresses T2, dengue type 4 virus (DENV-4), strain …. Nature of the experiment: cell-based or functional assay.
The target of the next experiment is DENV-1 strain Hawaii (dengue type 1 virus). Put plainly: cell-based or functional assay.
Experiment [7] has as its target DENV-2 New Guinea B (NGB) parent virus (dengue type 2 virus). Put plainly: cell-based or functional assay.
For a further experiment, the target named is WNV/DENV-4 chimera (West Nile virus). Nature of the experiment: cell-based or functional assay.
The target of experiment [8] is Japanese encephalitis virus (JEV) vaccine strain SA14-14-2 (Japanese encephalitis virus). Put plainly: cell-based or functional assay.
Experiment [9] deals with T3, Langat virus (LGTV) strain TP 21 (Langat virus, UniProt P29837 281-776).
T3 sequence: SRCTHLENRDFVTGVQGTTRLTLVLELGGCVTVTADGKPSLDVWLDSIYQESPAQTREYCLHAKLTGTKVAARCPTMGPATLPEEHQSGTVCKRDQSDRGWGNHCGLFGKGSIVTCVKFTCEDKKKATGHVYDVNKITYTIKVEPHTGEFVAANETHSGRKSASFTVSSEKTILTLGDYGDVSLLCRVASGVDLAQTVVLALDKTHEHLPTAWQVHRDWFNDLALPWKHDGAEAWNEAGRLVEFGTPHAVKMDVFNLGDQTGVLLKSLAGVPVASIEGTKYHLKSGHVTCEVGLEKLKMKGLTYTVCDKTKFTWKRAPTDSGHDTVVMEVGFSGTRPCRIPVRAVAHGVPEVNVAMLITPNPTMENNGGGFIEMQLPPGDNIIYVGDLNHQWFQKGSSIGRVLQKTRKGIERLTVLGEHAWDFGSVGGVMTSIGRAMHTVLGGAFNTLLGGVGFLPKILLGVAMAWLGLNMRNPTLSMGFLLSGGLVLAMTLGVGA
Put plainly: cell-based or functional assay.

B1: humanized IgG1 1A5 (antibody, V domains shown)
VH: EVQLLESGGGLVQPGGSRRLSCAASGFTISDNVMHWVRQAPGKGLEWVALIYSADTTHYADSVKGRFTISRDNSKNTLYLQMDSLRPEDTAVYYCAREYCTGDTCFAHFDYWGQGTLVSVSS
VL: ELQMTQSPSSVSASVGDTVTIACRASQSITNYLSWYQQKPGKAPKLLIYHASTLQSGIPSRFSGSGSGTDFTLTISSLQPDDFATYYCHYGYGTHTFGQGTKLEIKR
B1: the equilibrium dissociation constant (Kd) stood at 0.5 nM in experiment [1], 0.6 nM in experiment [2], 0.67 nM in experiment [3] and 0.82 nM in experiment [4]. Further, the PRNT50 titer in experiment [5] was 3.2 µg/mL; in [6] it was 4.3 µg/mL; with DENV-1 strain Hawaii it was 0.48 µg/mL; in experiment [7] it was 0.95 µg/mL; with WNV/DENV-4 chimera it was about 3.8 µg/mL; in experiment [8] it was 21 µg/mL. For the same molecule, the PRNT50 titer in [9] is 28 µg/mL.
